Data from paper PMC8453653, “Kinetic Characterization of a Putatively Chitin-Active LPMO Reveals a Preference for Soluble Substrates and Absence of Monooxygenase Activity” (ACS Catalysis, 2021).

Substrate: O=C1O[C@H]([C@@H](O)CO)C(O)=C1O
Test: initial rates of oxidized product formation by HPAEC-PAD, Michaelis-Menten fit
Format: biochemical, Aspergillus fumigatus
Details: reductant (apparent half-saturating concentration), 1 μM LPMO, 1 mM H2O2, 2 mM (GlcNAc)4, aerobic, 50 mM bis-tris/HCl pH 6.5, 37 °C
From the text: initial rates of oxidized product formation by HPAEC-PAD, Michaelis-Menten fit on AfAA11B

B1: AfAA11B (Aspergillus fumigatus Af293) (protein)
chain: HMKMRQPTPYSDSSLNNSPLAADGSDFPCKLRDNAFVPPSQETIAQIGEVMPLTFTGSATHGGGSCQVSLTTDLKPSKDSKWMVIKSIEGGCPANVDGNMSGGADVPDPFEFNYTIPAGIEPGKYTLAWTWFNRIGNREMYMNCAPITVTAGSSKRDAAPVAEKVEVEKRSANFPAMFVANINGCTTKEGVDIRFPDPGDVVEYDGNPSNLQPAGEAACSGTPAWTVSGGSGSPSTPSTSSSTPAGTSAGVSVSVGATVGATPTAEPESSSSEPAESEGAPGVFAPTSATVFPSTPTASAAPTSSSSGAGSESDSSSSSNGALTGPCSTEGLWNCIDGSSFQRCANGQWTTAQQMAAGTECTVGQNAQFTISATAVKPRMINAMRHRKRAHGGHRHA
notes: gene 1257 bp; expressed in Pichia pastoris (PichiaPink Strain 4), no tag mentioned; copper-saturated
Question: With B1 as the protein, how does the Km read?
Answer: 502 ± 35 µM

Question: And the kcat?
Answer: 3.9 ± 0.2 s^–1
